From article PMC12288454, “Functional consequences of genetic variations in DgoR, a GntR/FadR family transcriptional repressor of D-galactonate metabolism in Escherichia coli” (Journal of Bacteriology, 2025)
Numbering of substitutions follows the chain as printed.

Assays:
DgoR R71C = molecular target: T1, DgoR R71C (Escherichia coli BW, UniProt P31460 1-229, R71C); experiment: EMSA; no effector; apparent Kd, Hill fit; 10 nM DNA, 50 mM Tris pH 8.5, 10 mM MgCl2, 265 mM NaCl, 1 mM PMSF, 12% glycerol, 2 mM DTT, 1 ug herring sperm DNA per 20 uL, 27 C 30 min; effector pre-incubation 37 C 20 min; 8% native PAGE 0.5x TBE; settings: protein: recombinant; tags: C-terminal 6xHis; chain copies: 2; label: 5'-Cy5 on strand 1; blunt
T1 sequence: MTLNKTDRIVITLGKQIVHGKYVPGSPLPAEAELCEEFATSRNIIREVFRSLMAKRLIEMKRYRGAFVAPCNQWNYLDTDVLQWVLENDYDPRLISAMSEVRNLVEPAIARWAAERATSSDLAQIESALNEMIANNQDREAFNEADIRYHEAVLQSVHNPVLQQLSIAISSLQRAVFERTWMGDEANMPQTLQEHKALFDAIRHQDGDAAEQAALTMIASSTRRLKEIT

DgoR A152E = molecular target: T2, DgoR A152E (Escherichia coli BW, UniProt P31460 1-229, A152E); experiment: as above; settings: protein: recombinant; tags: C-terminal 6xHis; chain copies: 2; label: 5'-Cy5 on strand 1; blunt
T2 sequence: T1 sequence with C71R, A152E

B1: dgo promoter probe GA149/GA150 (dsDNA)
DNA 1: GTGATCTAAATTGTAGTACAACAATATAAGTTTGTACTACATTACACGCACG
DNA 2: CGTGCGTGTAATGTAGTACAAACTTATATTGTTGTACTACAATTTAGATCAC
- Kd (DgoR R71C): 0.57 ± 0.016 µM
- Kd (DgoR A152E): 1.95 ± 0.09 µM
